# Measured values published in PMC12693511, “Processing of DNA single-strand breaks with oxidatively damaged ends by LIG1”.
# B1: nick 3'-8-oxodG:C (dsDNA)
# DNA 1: GCTGATGCGTG
# DNA 2: GTCGGAC
# DNA 3: GTCCGACCACGCATCAGC
# modifications: 8-oxodG at 3' end of strand 1 (nt 11); 5'-phosphate on strand 2 (5'-AMP in crystal)
# B2: nick 3'-8-oxodG:A (dsDNA)
# DNA 1: GCTGATGCGTG
# DNA 2: GTCGGAC
# DNA 3: GTCCGACAACGCATCAGC
# modifications: 8-oxodG at 3' end of strand 1 (nt 11); 5'-phosphate on strand 2 (5'-AMP in crystal)
# B3: nick 3'-8-oxorG:C (mixed)
# DNA 1: GCTGATGCGTG
# DNA 2: GTCGGAC
# DNA 3: GTCCGACCACGCATCAGC
# modifications: 8-oxo-riboG at 3' end of strand 1 (nt 11), rest DNA; 5'-phosphate on strand 2 (5'-AMP in crystal)
# B4: nick 3'-8-oxorG:A (mixed)
# DNA 1: GCTGATGCGTG
# DNA 2: GTCGGAC
# DNA 3: GTCCGACAACGCATCAGC
# modifications: 8-oxo-riboG at 3' end of strand 1 (nt 11), rest DNA; 5'-phosphate on strand 2; strands 1 and 2 ligated in the crystal
# Assays:
# LIG1 wild-type = LIG1 wild-type (UniProt P18858 262-919); test: X-ray crystallography; AMP, pre-catalytic (DNA-AMP); EDTA, no metal added; BLI: 20 mM HEPES pH 7.4, 200 mM NaCl, 0.5% BSA, 0.05% Tween 20, 40 nM DNA loaded, sensors hydrated at 20 C; crystals: 20 mM Tris-HCl pH 7.0, 200 mM NaCl, 1 mM DTT, 1 mM EDTA, 1 mM ATP, 1.4:1 DNA:protein, 20 C; details: protein: recombinant; tags: 6xHis; nicked duplex, blunt outer ends; 8-oxoG:C Watson-Crick pair at nick
# [1] = target: T1, LIG1 EE/AA (C-terminal, Δ261) (UniProt P18858 262-919, E346A;E592A); test: as above; details: protein: recombinant, tags: 6xHis, nicked duplex, blunt outer ends
# [2] = target: T1, LIG1 EE/AA (C-terminal, Δ261); test: X-ray crystallography; post-catalytic, nick sealed; EDTA, no metal added; BLI: 20 mM HEPES pH 7.4, 200 mM NaCl, 0.5% BSA, 0.05% Tween 20, 40 nM DNA loaded, sensors hydrated at 20 C; crystals: 20 mM Tris-HCl pH 7.0, 200 mM NaCl, 1 mM DTT, 1 mM EDTA, 1 mM ATP, 1.4:1 DNA:protein, 20 C; details: protein: recombinant; tags: 6xHis; nicked duplex, blunt outer ends; 8-oxorG:A Hoogsteen pair; nick sealed in crystal
# T1 sequence (P18858 262-919 E346A/E592A): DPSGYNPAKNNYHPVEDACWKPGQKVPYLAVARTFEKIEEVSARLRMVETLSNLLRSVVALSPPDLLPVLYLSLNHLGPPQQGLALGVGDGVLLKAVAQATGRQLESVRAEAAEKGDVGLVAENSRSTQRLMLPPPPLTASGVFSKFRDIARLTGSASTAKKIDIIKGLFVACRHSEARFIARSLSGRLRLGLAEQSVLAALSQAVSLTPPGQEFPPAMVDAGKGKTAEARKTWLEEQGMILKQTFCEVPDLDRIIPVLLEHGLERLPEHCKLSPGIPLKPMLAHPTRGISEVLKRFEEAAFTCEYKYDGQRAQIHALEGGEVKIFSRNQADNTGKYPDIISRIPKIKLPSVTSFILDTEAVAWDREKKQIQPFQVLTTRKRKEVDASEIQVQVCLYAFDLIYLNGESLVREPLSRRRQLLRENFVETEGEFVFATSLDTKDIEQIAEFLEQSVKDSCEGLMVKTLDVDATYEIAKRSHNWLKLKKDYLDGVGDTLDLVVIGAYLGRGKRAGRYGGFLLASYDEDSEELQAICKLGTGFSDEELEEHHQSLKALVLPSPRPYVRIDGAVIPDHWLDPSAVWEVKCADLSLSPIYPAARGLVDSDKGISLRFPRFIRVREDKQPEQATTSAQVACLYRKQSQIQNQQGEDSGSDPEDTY
# Sequence of LIG1 wild-type (P18858 262-919): as the sequence (P18858 262-919 E346A/E592A) above, with A85E, A331E counted along it
binder,measurement,setting,value
B1,binding result,LIG1 wild-type,binds
same,binding result,[1]; 8-oxoG:C Watson-Crick pair at nick,binds
B2,binding result,[1]; 8-oxoG:A Hoogsteen pair at nick,binds
B3,binding result,[1]; 8-oxorG:C Watson-Crick pair at nick,binds
B4,binding result,[2],binds
